Reference: US20130260394A1

Legend:
[1] = molecular target: membrane receptor interacting with BLV (unknown) (human); test: flow cytometry, tagged RBD on sputum neutrophils of one CF patient
[2] = molecular target: membrane receptor interacting with BLV (unknown) (human); test: flow cytometry, tagged RBD on blood neutrophils of one CF patient

Bovine Leukaemia Virus receptor-binding domain (BLV RBD) (from UniProt P25507 34-215)
deltaGeomean of fluorescence [1]: 140 | deltaGeomean of fluorescence [2]: 0
